Patent publication US20050095247A1 (UNIVERSITY OF BRITISH COLUMBIA, published 2005)

Biological target: T1, calmodulin (Homo sapiens (Human), UniProt P0DP23 2-149)
T1 construct: also called calmodulin-agarose
Assay: pull-down of purified protein on calmodulin-agarose; anti-EF-1α immunoblot

B1: macrophage EF-1α (murine, from RAW 264.7 cells) (other)
chain: GKEKTHINIVVIGHVDSGKSTTTGHLIYKCGGIDKRTIEKFEKEAAEMGKGSFKYAWVLDKLKAERERGITIDISLWKFETSKYYVTIIDAPGHRDFIKNMITGTSQADCAVLIVAAGVGEFEAGISKNGQTREHALLAYTLGVKQLIVGVNKMDSTEPPYSQKRYEEIVKEVSTYIKKIGYNPDTVAFVPISGWNGDNMLEPSANMPWFKGWKVTRKDGSASGTTLLEALDCILPPTRPTDKPLRLPLQDVYKIGGIGTVPVGRVETGVLKPGMVVTFAPVNVTTEVKSVEMHHEALSEALPGDNVGFNVKNVSVKDVRRGNVAGDSKNDPPMEAAGFTAQVIILNHPGQISAGYAPVLDCHTAHIACKFAELKEKIDRRSGKKLEDGPKFLKSGDAAIVDMVPGKPMCVESFSDYPPLGRFAVRDMRQTVAVGVIKAVDKKAAGAGKVTKSAQKAQKAK
notes: also called host EF-1α; host-EF-1α
binding result: binds
